Laboratory results taken from publication PMC7192624, “A Snu114–GTP–Prp8 module forms a relay station for efficient splicing in yeast” (Nucleic Acids Research, 2020).

B1: Snu114^72-1008 (yeast Snu114 lacking the acidic N-terminal region) (domain or fragment, UniProt P36048 72-1008, looked up)
chain: KEVEVLMETKNTQSPQTPLVEPVTERTKLQEHTIFTQLKKNIPKTRYNRDYMLSMANIPERIINVGVIGPLHSGKTSLMDLLVIDSHKRIPDMSKNVELGWKPLRYLDNLKQEIDRGLSIKLNGSTLLCTDLESKSRMINFLDAPGHVNFMDETAVALAASDLVLIVIDVVEGVTFVVEQLIKQSIKNNVAMCFVINKLDRLILDLKLPPMDAYLKLNHIIANINSFTKGNVFSPIDNNIIFASTKLGFTFTIKEFVSYYYAHSIPSSKIDDFTTRLWGSVYYHKGNFRTKPFENVEKYPTFVEFILIPLYKIFSYALSMEKDKLKNLLRSNFRVNLSQEALQYDPQPFLKHVLQLIFRQQTGLVDAITRCYQPFELFDNKTAHLSIPGKSTPEGTLWAHVLKTVDYGGAEWSLVRIYSGLLKRGDTVRILDTSQSESRQKRQLHDISKTETSNEDEDEDDETPSCEVEEIGLLGGRYVYPVHEAHKGQIVLIKGISSAYIKSATLYSVKSKEDMKQLKFFKPLDYITEAVFKIVLQPLLPRELPKLLDALNKISKYYPGVIIKVEESGEHVILGNGELYMDCLLYDLRASYAKIEIKISDPLTVFSESCSNESFASIPVSNSISRLGEENLPGLSISVAAEPMDSKMIQDLSRNTLGKGQNCLDIDGIMDNPRKLSKILRTEYGWDSLASRNVWSFYNGNVLINDTLPDEISPELLSKYKEQIIQGFYWAVKEGPLAEEPIYGVQYKLLSISVPSDVNIDVMKSQIIPLMKKACYVGLLTAIPILLEPIYEVDITVHAPLLPIVEELMKKRRGSRIYKTIKVAGTPLLEVRGQVPVIESAGFETDLRLSTNGLGMCQLYFWHKIWRKVPGDVLDKDAFIPKLKPAPINSLSRDFVMKTRRRKGISTGGFMSNDGPTLEKYISAELYAQLRENGLVP
notes: synthetic gene; Co-purifies with endogenous GTP; source: insect cells (MultiBac baculovirus); co-produced with Prp8 constructs or alone; purified (StrepTactin, SEC); not shown: Strep tag (from the vector pIDS-C-Strep), C-terminal, kept

How the values were obtained:
Conditions in all cases: both partners purified
[1] = target: B1; test: SEC; two proteins co-produced in insect cells, both Strep-tagged; StrepTactin capture, then SEC on Superdex S200 in 10 mM TRIS-HCl pH 8.0, 300 mM NaCl, 2 mM DTT; co-purification of wt and variant complexes
[2] = target: T1, Prp8^132-2413 (large fragment of yeast Prp8 lacking the first 131 residues) (yeast, UniProt P33334 132-2413); test: SEC; three proteins co-produced in insect cells, all Strep-tagged; complex purified by StrepTactin, Heparin, Mono Q and SEC (Superose 6, 50 mM TRIS-HCl pH 8.5, 300 mM NaCl, 2 mM DTT); analytical gel filtration with SDS-PAGE of fractions
T1 construct: Prp8, yeast, residues 132-2413; synthetic gene; methods and results print 132-2413; source: complex purified (StrepTactin, Heparin, Mono Q, SEC); not shown: Strep tag (from the vector pFL-C-Strep), C-terminal, kept

[3] = target: B1; test: SEC; limited proteolysis of the purified trimeric complex with chymotrypsin (room temperature, 35 min), then SEC on Superose 6 Increase in 20 mM TRIS-HCl pH 8.5, 500 mM NaCl, 2 mM DTT; fragments identified by mass spectrometric fingerprinting and N-terminal sequencing

Binder	binding result [1]	other results
Prp8^SBR Δ402–406 (domain or fragment, yeast, UniProt P33334 315-555, looked up, also called Prp8^Δ402–406; source: insect cells, co-produced with Snu114; complex purified; not shown: Strep tag (from the vector pFL-N-Strep), N-terminal, kept) STPLRDEVTDKNYYYLFDKKSFFNGKALNNAIPGGPKFEPLYPREEEEDYNEFNSIDRVIFRVPIRSEYKVAFPHLYNSRPRSVRIPVSCIIQNDEEYDTPALFFDPSLNPIPHFIDNNSSLNVSNTKENGDFTLPEDFAPLLAEEEELILPNTKDAMSLYHSPFPFNRTKGKMVRAQDVALAKKWFLQHPDEEYPVKVKVSYQKLLKNYVLNELHPTLPTNHNKTKLLKSLKNTK	binds	–
Aar2 (natural protein, yeast, UniProt P32357 1-355, looked up, Aar2, U5 snRNP assembly factor, yeast; synthetic gene; source: complex purified (StrepTactin, Heparin, Mono Q, SEC); not shown: Strep tag (from the vector pIDK-C-Strep), C-terminal, kept) MNTVPFTSAPIEVTIGIDQYSFNVKENQPFHGIKDIPIGHVHVIHFQHADNSSMRYGYWFDCRMGNFYIQYDPKDGLYKMMEERDGAKFENIVHNFKERQMMVSYPKIDEDDTWYNLTEFVQMDKIRKIVRKDENQFSYVDSSMTTVQENELLKSSLQKAGSKMEAKNEDDPAHSLNYTVINFKSREAIRPGHEMEDFLDKSYYLNTVMLQGIFKNSSNYFGELQFAFLNAMFFGNYGSSLQWHAMIELICSSATVPKHMLDKLDEILYYQIKTLPEQYSDILLNERVWNICLYSSFQKNSLHNTEKIMENKYPELLGKDNEDDALIYGISDEERDDEDDEHNPTIVGGLYYQRP	–	binding result [2]: binds
Prp8^SBR Δ421–468 (domain or fragment, yeast, UniProt P33334 315-555, looked up, also called Prp8^Δ421–468; source: insect cells, co-produced with Snu114; complex purified; not shown: Strep tag (from the vector pFL-N-Strep), N-terminal, kept) STPLRDEVTDKNYYYLFDKKSFFNGKALNNAIPGGPKFEPLYPREEEEDYNEFNSIDRVIFRVPIRSEYKVAFPHLYNSRPRSVRIPWYNNPVSCIIQNDEEYDTPILPNTKDAMSLYHSPFPFNRTKGKMVRAQDVALAKKWFLQHPDEEYPVKVKVSYQKLLKNYVLNELHPTLPTNHNKTKLLKSLKNTK	binds	–
Prp8 residues 315-555 (Prp8^SBR), chymotryptic fragment (domain or fragment, yeast, UniProt P33334 315-555, looked up) STPLRDEVTDKNYYYLFDKKSFFNGKALNNAIPGGPKFEPLYPREEEEDYNEFNSIDRVIFRVPIRSEYKVAFPHLYNSRPRSVRIPWYNNPVSCIIQNDEEYDTPALFFDPSLNPIPHFIDNNSSLNVSNTKENGDFTLPEDFAPLLAEEEELILPNTKDAMSLYHSPFPFNRTKGKMVRAQDVALAKKWFLQHPDEEYPVKVKVSYQKLLKNYVLNELHPTLPTNHNKTKLLKSLKNTK	–	binding result [3]: binds
Prp8^SBR Y403A (domain or fragment, yeast, UniProt P33334 315-555, looked up, also called Prp8^Y403A; source: insect cells, co-produced with Snu114; complex purified; not shown: Strep tag (from the vector pFL-N-Strep), N-terminal, kept) STPLRDEVTDKNYYYLFDKKSFFNGKALNNAIPGGPKFEPLYPREEEEDYNEFNSIDRVIFRVPIRSEYKVAFPHLYNSRPRSVRIPWANNPVSCIIQNDEEYDTPALFFDPSLNPIPHFIDNNSSLNVSNTKENGDFTLPEDFAPLLAEEEELILPNTKDAMSLYHSPFPFNRTKGKMVRAQDVALAKKWFLQHPDEEYPVKVKVSYQKLLKNYVLNELHPTLPTNHNKTKLLKSLKNTK	binds	–
Prp8^SBR Y403F (domain or fragment, yeast, UniProt P33334 315-555, looked up, also called Prp8^Y403F; source: insect cells, co-produced with Snu114; complex purified; not shown: Strep tag (from the vector pFL-N-Strep), N-terminal, kept) STPLRDEVTDKNYYYLFDKKSFFNGKALNNAIPGGPKFEPLYPREEEEDYNEFNSIDRVIFRVPIRSEYKVAFPHLYNSRPRSVRIPWFNNPVSCIIQNDEEYDTPALFFDPSLNPIPHFIDNNSSLNVSNTKENGDFTLPEDFAPLLAEEEELILPNTKDAMSLYHSPFPFNRTKGKMVRAQDVALAKKWFLQHPDEEYPVKVKVSYQKLLKNYVLNELHPTLPTNHNKTKLLKSLKNTK	binds	–
Prp8^SBR 402–406_5S (domain or fragment, yeast, UniProt P33334 315-555, looked up, also called Prp8^402–406_5S; source: insect cells, co-produced with Snu114; complex purified; not shown: Strep tag (from the vector pFL-N-Strep), N-terminal, kept) STPLRDEVTDKNYYYLFDKKSFFNGKALNNAIPGGPKFEPLYPREEEEDYNEFNSIDRVIFRVPIRSEYKVAFPHLYNSRPRSVRIPSSSSSVSCIIQNDEEYDTPALFFDPSLNPIPHFIDNNSSLNVSNTKENGDFTLPEDFAPLLAEEEELILPNTKDAMSLYHSPFPFNRTKGKMVRAQDVALAKKWFLQHPDEEYPVKVKVSYQKLLKNYVLNELHPTLPTNHNKTKLLKSLKNTK	binds	–
Prp8^SBR WY402-403AA (domain or fragment, also called Prp8^WY402/3AA; source: insect cells, co-produced with Snu114; complex purified; not shown: Strep tag (from the vector pFL-N-Strep), N-terminal, kept) not shown	binds	–
B1	–	binding result [2]: binds
